Test results taken from patent US20160108118A1.

B1: scFv-phage clone 10D (scFv)
scFv: QVQLVQSGGGVVQPGRSLRLSCAASGFTFSSYGMHWVRQAPGKGLEWVAVISYDGSNKYYADSVKGRFTISRDNSKNTLYLQMNSLRSEDTAVYYCARDKRAAFDIWGQGKMVTVSSGLGGLGGGGSGGGGSGGSSGVGSSYELTQAPSLSVSPGQTANIICSGDNLRTKYVSWYQQKPGQSPLLVIYQDTRRPSGIPARFSGSNSGNTATLTISGTQTERESTYYCMTWDVDTTSMIFGGGTKLTVL
B2: scFv-phage clone 9E (scFv, part only; not given: scFv linker and domain order, part only)
scFv, part: QVQLVESGGGVVQPGRSLRLSCAASGFTFSSYGMHWVRQAPGKGLEWVAVISYDGNNKYYVDSVKGRFTISRDNSKNTLYLQMNSLRSEDTAVYYCARDSGSYLDWYFDLWGRGTLVTVSSQPPSVSVAPGKTARIACGGGNIGDKSVHWYQQKPGQAPVLVIFYDSDRPSGIPKRLSGSNSGNTATLTISRVEAGDEGDYYCQVWDSSSDRPVFGGGTKLTVLG
B3: scFv-phage clone 12D (scFv, part only; not given: scFv linker and domain order, part only)
scFv, part: QVQLVQSGGGVVQPGRSLRLSCVASAFTFSRYGMHWVRQAPGKGLEWVALISYDGSSEYYADSVKGRFNISRDNSKNTVYLQMNSLRAEDTAVYYCVKDGLAAKLGHWGQGTLVTVSSQAPSLSVSPGQTANIICSGDNLRTKYVSWYQQKPGQSPLLVIYQDTRRPSGIPARFSGSNSGNTATLTISGTQTERESTYYCMTWDVDTTSMIFGGGTKLTVLG

Tests used:
[1] = molecular target: α-myc (anti-myc antibody coated as second antigen); assay: phage ELISA
[2] = molecular target: His (control coat of Table 2); assay: phage ELISA

| Binder | OD490 [1] | OD490 [2] |
| --- | --- | --- |
| B1 | 3.02 |  |
| B2 | 2.01 | 0.043 |
| B3 | 0.888 | 0.049 |
